From the supplement of paper PMC9112550, “Optimization of the antimicrobial peptide Bac7 by deep mutational scanning” (BMC Biology, 2022)

Test system: Escherichia coli TOP10
Test: shrunken log2 fold change of peptide-encoding DNA abundance (4.5 h post-induction vs induction); higher = less antimicrobial activity (less host growth inhibition)
Details: time post-induction: 4.5 h; library: site-saturation at positions 5, 18, 19, 20
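Note: peptides expressed intracellularly from a pBAD plasmid library in pooled LB shake-flask culture, induced with 0.3% L-arabinose, DNA abundance read by NGS, three biological replicates, DESeq2 with apeglm shrinkage.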

| Sequence | shrunken log2 fold change |
| --- | --- |
| RRIRNRPPRLPRPRPRPSNFPRP | -0.31 |
| RRIRFRPPRLPRPRPRPVYRPRP | -0.285 |
| RRIRLRPPRLPRPRPRPCLMPRP | -0.266 |
| RRIRRRPPRLPRPRPRPVYYPRP | -0.223 |
| RRIRLRPPRLPRPRPRPHVYPRP | -0.211 |
| RRIRYRPPRLPRPRPRPPFTPRP | -0.244 |
| RRIRNRPPRLPRPRPRPMRGPRP | 0.211 |
| RRIRWRPPRLPRPRPRPNFEPRP | 0.00226 |
| RRIRERPPRLPRPRPRPEPCPRP | -0.148 |
| RRIRNRPPRLPRPRPRPNKGPRP | -0.134 |
| RRIRTRPPRLPRPRPRPSNGPRP | -0.126 |
| RRIRYRPPRLPRPRPRPEMAPRP | -0.107 |
| RRIRRRPPRLPRPRPRPSRIPRP | 0.157 |
| RRIRIRPPRLPRPRPRPRESPRP | 0.133 |
| RRIRNRPPRLPRPRPRPFFKPRP | 0.0559 |
| RRIRDRPPRLPRPRPRPYWQPRP | -0.548 |
| RRIRRRPPRLPRPRPRPPVVPRP | 0.26 |
| RRIRERPPRLPRPRPRPTWGPRP | -0.0539 |
| RRIRTRPPRLPRPRPRPHSNPRP | -0.489 |
| RRIRFRPPRLPRPRPRPCQYPRP | -0.53 |
| RRIRTRPPRLPRPRPRPFKCPRP | -0.18 |
| RRIRCRPPRLPRPRPRPFNNPRP | -0.701 |

| Sequence | shrunken log2 fold change |
| --- | --- |
| RRIRVRPPRLPRPRPRPCLLPRP | -0.072 |
| RRIRVRPPRLPRPRPRPKFSPRP | 0.0178 |
| RRIRPRPPRLPRPRPRPMEKPRP | -0.00992 |
| RRIRHRPPRLPRPRPRPSKCPRP | -1.04 |
| RRIRARPPRLPRPRPRPTIMPRP | 0.15 |
| RRIRVRPPRLPRPRPRPETAPRP | 0.406 |
| RRIRARPPRLPRPRPRPKKHPRP | 0.417 |
| RRIRVRPPRLPRPRPRPCSTPRP | -0.127 |
| RRIRYRPPRLPRPRPRPKGRPRP | -0.258 |
| RRIRYRPPRLPRPRPRPFGMPRP | -0.00968 |
| RRIRWRPPRLPRPRPRPFVRPRP | -0.127 |
| RRIRFRPPRLPRPRPRPRHRPRP | 0.195 |
| RRIRPRPPRLPRPRPRPQVVPRP | -0.00675 |
| RRIRKRPPRLPRPRPRPLLEPRP | 0.241 |
| RRIRVRPPRLPRPRPRPCSLPRP | -0.201 |
| RRIRKRPPRLPRPRPRPVQNPRP | 0.49 |
| RRIRSRPPRLPRPRPRPWCMPRP | -0.781 |
| RRIRCRPPRLPRPRPRPYWSPRP | -1.2 |
| RRIRSRPPRLPRPRPRPNFTPRP | -0.0286 |
| RRIRWRPPRLPRPRPRPEAPPRP | 1.01 |
| RRIRMRPPRLPRPRPRPSDTPRP | 0.232 |
| RRIRLRPPRLPRPRPRPMYSPRP | -0.364 |

| Sequence | shrunken log2 fold change |
| --- | --- |
| RRIRYRPPRLPRPRPRPPHKPRP | -0.549 |
| RRIRVRPPRLPRPRPRPCWKPRP | -0.00912 |
| RRIRNRPPRLPRPRPRPRKAPRP | 0.473 |
| RRIRVRPPRLPRPRPRPWWYPRP | -0.327 |
| RRIRSRPPRLPRPRPRPPFAPRP | 1.88 |
| RRIRKRPPRLPRPRPRPQIEPRP | 0.0198 |
| RRIRDRPPRLPRPRPRPDRYPRP | -0.395 |
| RRIRGRPPRLPRPRPRPHINPRP | 0.214 |
| RRIRKRPPRLPRPRPRPCHRPRP | 0.00781 |
| RRIRSRPPRLPRPRPRPPKMPRP | 0.00423 |
| RRIRARPPRLPRPRPRPGDHPRP | 0.114 |
| RRIRQRPPRLPRPRPRPNILPRP | -0.233 |
| RRIRHRPPRLPRPRPRPIYWPRP | -0.181 |
| RRIRKRPPRLPRPRPRPGFKPRP | -0.0198 |
| RRIRMRPPRLPRPRPRPVAIPRP | 0.104 |
| RRIRSRPPRLPRPRPRPCWIPRP | -0.0651 |
| RRIRGRPPRLPRPRPRPKPTPRP | 0.527 |
| RRIRYRPPRLPRPRPRPPALPRP | -0.1 |
| RRIRGRPPRLPRPRPRPAMHPRP | 1.03 |
| RRIRARPPRLPRPRPRPMVLPRP | -0.118 |
| RRIRWRPPRLPRPRPRPHAVPRP | 0.172 |
| RRIRQRPPRLPRPRPRPAHCPRP | 0.0134 |

| Sequence | shrunken log2 fold change |
| --- | --- |
| RRIRERPPRLPRPRPRPIAAPRP | 0.466 |
| RRIRARPPRLPRPRPRPAFSPRP | 0.215 |
| RRIRDRPPRLPRPRPRPKYPPRP | 0.0118 |
| RRIRTRPPRLPRPRPRPCFNPRP | -0.667 |
| RRIRDRPPRLPRPRPRPVILPRP | -0.146 |
| RRIRNRPPRLPRPRPRPLHHPRP | -0.39 |
| RRIRARPPRLPRPRPRPVIFPRP | 0.0535 |
| RRIRGRPPRLPRPRPRPNRFPRP | 0.282 |
| RRIRWRPPRLPRPRPRPQSEPRP | -0.338 |
| RRIRYRPPRLPRPRPRPQASPRP | -0.0259 |
| RRIRRRPPRLPRPRPRPKATPRP | 0.165 |
| RRIRNRPPRLPRPRPRPWLLPRP | -0.436 |
| RRIRHRPPRLPRPRPRPRNDPRP | -0.0937 |
| RRIRNRPPRLPRPRPRPHNDPRP | -0.395 |
| RRIRSRPPRLPRPRPRPEIKPRP | 0.104 |
| RRIRLRPPRLPRPRPRPTVLPRP | -0.126 |
| RRIRYRPPRLPRPRPRPTGHPRP | 0.0155 |
| RRIRPRPPRLPRPRPRPQPQPRP | 0.26 |
| RRIRCRPPRLPRPRPRPTSLPRP | -0.167 |
| RRIRCRPPRLPRPRPRPDFRPRP | 0.00204 |
| RRIRDRPPRLPRPRPRPGFHPRP | 0.0294 |
| RRIRIRPPRLPRPRPRPWYQPRP | 0.00187 |

| Sequence | shrunken log2 fold change |
| --- | --- |
| RRIRIRPPRLPRPRPRPRSVPRP | -0.056 |
| RRIRERPPRLPRPRPRPWFIPRP | -0.00655 |
| RRIRIRPPRLPRPRPRPDYFPRP | 0.197 |
| RRIRPRPPRLPRPRPRPPLCPRP | 0.281 |
| RRIRVRPPRLPRPRPRPEDMPRP | -0.115 |
| RRIRIRPPRLPRPRPRPELIPRP | 0.0381 |
| RRIRDRPPRLPRPRPRPRYTPRP | -0.219 |
| RRIRWRPPRLPRPRPRPRNFPRP | 0.0292 |
| RRIRLRPPRLPRPRPRPHVAPRP | 0.0259 |
| RRIRRRPPRLPRPRPRPDIPPRP | -0.22 |
| RRIRWRPPRLPRPRPRPTYEPRP | 0.207 |
| RRIRLRPPRLPRPRPRPEQWPRP | -0.00018 |
| RRIRYRPPRLPRPRPRPNHGPRP | -0.0102 |
| RRIRYRPPRLPRPRPRPNVLPRP | -0.554 |
| RRIRVRPPRLPRPRPRPGTAPRP | 0.136 |
| RRIRVRPPRLPRPRPRPGKEPRP | -0.0126 |
| RRIRRRPPRLPRPRPRPEMRPRP | 0.0735 |
| RRIRLRPPRLPRPRPRPEIQPRP | -0.0217 |
| RRIRFRPPRLPRPRPRPSFYPRP | -0.514 |
| RRIRNRPPRLPRPRPRPTQPPRP | 0.6 |
| RRIRSRPPRLPRPRPRPWFFPRP | -0.197 |
